Test results: patent publication US11780901B2, “Analogues of parathyroid hormone (1-34) that function as agonists of the parathyroid hormone receptor-1 and display modified activity profiles” (Wisconsin Alumni Research Foundation, priority 2013, dated 2023)

Key:
PTHR1 = target: T1, PTHR1 (Homo sapiens, UniProt Q03431); assay: Functional selectivity (Gs activation/cAMP production vs βarr recruitment); type: cell-based; design: expressed in transfected cells; host or cells: cells stably expressing PTHR1; settings: cAMP activation vs βarr1 and βarr2 recruitment, relative to PTH (1-34)
T1 sequence (Q03431 27-593): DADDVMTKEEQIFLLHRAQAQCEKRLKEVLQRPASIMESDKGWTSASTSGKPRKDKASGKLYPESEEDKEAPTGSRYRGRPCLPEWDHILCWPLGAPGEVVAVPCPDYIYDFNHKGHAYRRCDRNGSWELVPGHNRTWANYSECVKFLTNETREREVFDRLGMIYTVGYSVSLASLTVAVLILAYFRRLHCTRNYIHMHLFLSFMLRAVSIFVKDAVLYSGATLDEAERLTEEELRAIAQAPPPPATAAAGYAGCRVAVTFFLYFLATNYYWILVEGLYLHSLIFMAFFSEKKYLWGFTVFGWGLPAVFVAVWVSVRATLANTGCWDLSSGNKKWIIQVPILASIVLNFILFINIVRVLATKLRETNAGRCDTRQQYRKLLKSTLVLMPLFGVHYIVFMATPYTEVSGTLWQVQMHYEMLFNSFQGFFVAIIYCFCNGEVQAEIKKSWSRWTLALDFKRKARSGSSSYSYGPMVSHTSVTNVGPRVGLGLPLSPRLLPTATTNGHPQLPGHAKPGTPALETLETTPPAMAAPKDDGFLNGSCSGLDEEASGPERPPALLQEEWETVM
Method: More specifically, the initial studies that yielded the compounds disclosed and claimed herein were conducted to determine whether there is a correlation between βarr recruitment and receptor residence time of a PTHR1 agonist. The initial studies were thus conducted in two steps. First, the functional selectivity (Gs activation as indicated by cAMP production vs. βarr recruitment) of several PTHR1 agonists that display substantial differences in signaling duration were evaluated. Second, novel PTHR1 agonists were designed that have high functional selectivity and evaluated the signaling duration of these biased agonists.
The functional selectivity of BA058 is more significant than that of PTHrP. […] LA-PTH is a long-acting PTH analog. […] The middle panels in FIG. 2 are graphs depicting, from left-to-right: βarr1 and βarr2 recruitment, presented as normalized BRET signals (bioluminescence resonance energy transfer) as a function of the log of the peptide concentration, and cAmp activation presented as normalized RLU signals (relative light units) as a function of the log of the peptide concentration. Red=PTH. Orange=LA=LA−PTH. Blue=BA058. Green=PTHrP. (BRET assays are well known and suitable kits are available commercially. See, for example, Promega's “NanoBRET” kits, catalogs nos. N1821 and N1811; Promega Corporation, Fitchburg, Wis.). The table at the bottom of FIG. 2 presents the pEC50 and Emax values for the […] and βarr2 recruitment and cAMP activation. FIG. 3 presents the data for the bias of the activity—either toward βarr recruitment or cAMP activation.
Incorporating (R*)-β^2Leu/(D)-Leu at the 7th position or (R*)-β^2Nle at the 8th position leads to high Gs-biased agonism. […] (D)-Nle is poorly tolerated at the 8th position for both cAMP signaling and βarr recruitment. The top panels in FIG. 5 are graphs depicting, from left-to-right: βarr1 and βarr2 recruitment, presented as normalized BRET signals as a function of the log of the peptide concentration, and cAmp activation presented as normalized RLU signals as a function of the log of the peptide concentration. […]

rat PTHR-1 (GR35 cells) = target: T2, rat PTHR-1 (GR35 cells) (Rattus norvegicus, UniProt P25961); assay: Washout assay of Gs-biased PTHR1 agonists (cAMP response after washout); type: cell-based; settings: compared with PTH (1-34)
T2 construct: expressed in transfected cells
T2 sequence (P25961 27-591): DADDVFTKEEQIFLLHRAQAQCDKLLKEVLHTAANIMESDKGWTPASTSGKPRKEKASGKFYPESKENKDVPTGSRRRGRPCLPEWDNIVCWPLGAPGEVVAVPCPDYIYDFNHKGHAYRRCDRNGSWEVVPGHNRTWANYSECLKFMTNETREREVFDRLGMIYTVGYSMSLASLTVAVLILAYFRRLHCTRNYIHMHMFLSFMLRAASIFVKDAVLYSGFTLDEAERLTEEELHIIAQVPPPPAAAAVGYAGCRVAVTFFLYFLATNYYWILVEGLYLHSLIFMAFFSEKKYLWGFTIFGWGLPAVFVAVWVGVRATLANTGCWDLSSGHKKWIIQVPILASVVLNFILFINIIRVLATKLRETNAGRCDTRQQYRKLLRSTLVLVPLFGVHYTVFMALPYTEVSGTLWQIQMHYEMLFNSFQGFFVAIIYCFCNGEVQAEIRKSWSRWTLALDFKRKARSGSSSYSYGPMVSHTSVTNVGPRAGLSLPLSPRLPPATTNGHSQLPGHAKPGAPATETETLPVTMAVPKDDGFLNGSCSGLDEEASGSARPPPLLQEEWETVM
Method: These “washout assays”^7,8,21 assess the ability of the peptides to form stable ligand-receptor complexes capable of stimulating prolonged cAMP responses. The ability of a peptide to elicit prolonged cAMP responses via PTHR-1 following washout typically correlates with the affinity of that peptide for the R^0 state.^7,8,21
HEK293 cell monolayers expressing rat PTHR-1 (GR35 cells) were treated with ligand in for 14 minutes. This buffer was then discarded, and the cell monolayer was rinsed (2×). Buffer containing luciferin was introduced for 120 minutes. Luminescence response was recorded before and after washout, with luminescence readings recorded every 2 minutes. The area under the curve (AUC) for luminescence response curve was determined using GraphPad Prism.
Data were processed by using the Microsoft Excel and GraphPad Prism 4.0 software packages. Data from binding and cAMP dose—response assays were analyzed using a sigmoidal dose—response model with variable slope. Washout responses were assessed by quantifying the area under the luminescence response curve (AUC) following washout. Post-washout AUC was normalized by dividing the post-washout AUC by the pre-washout AUC. Paired data sets were statistically compared by using Student's t test (two-tailed) assuming unequal variances for the two sets.

Q: Which “signaling bias / functional selectivity (in words)” value (PTHR1) does the source give for “Ligand 12: PTH(1-34) analogue with replaced residue at position 8 (character image); highly Gs-biased (SVSEIQLXHNLGKHLNSMERVEWLRKKLQDVHNF; non-natural residue at position 8; MOD_RES (8)..(8) X at position 8 is (R*)-Beta-2-Norleucine.)” here?
A: The value was “strongly biased toward cAMP activation relative to both βarr1 and βarr2 recruitment”.

Q: And the “signaling duration after washout (in words)” value (rat PTHR-1 (GR35 cells))?
A: The value was “more transient signaling than PTH (1-34)”.
